# Test results reported in patent US20100004165A1, “Novel Protein Transduction Domains and Uses Therefor” (The Arizona Board of Regents, a body corporate acting on …, priority 2005, published 2010).
# Like-named read-outs stand apart in the source and are kept apart here. Square brackets hold non-standard residues; d marks the D form. Ends that are not written are not given here. * marks the point of attachment. FITC = O=C1OC2(c3ccc(O)cc3Oc3cc(O)ccc32)c2ccc(NC(=S)*)cc21; pS = N[C@@H](COP(=O)(O)O)C(=O)O; βAla = NCCC(=O)O
# Experiments:
# [1] = tested on: 3T3 fibroblasts; assay: Transduction of FITC-labeled peptides into 3T3 fibroblasts (fluorescence imaging); format: cell-based; conditions: 50 μM, 1 hour, media with or without serum
# Procedure: FITC-(b)[…] (SEQ ID NO: 37)(WLRRIKA (SEQ ID NO: 3) monomer), FITC-(b)[…] (SEQ ID NO: 38)(WLRRIKA (SEQ ID NO: 3) dimer), and FITC-(b)[…] (SEQ ID NO: 39)(WLRRIKA (SEQ ID NO: 3) trimer) were synthesized on a 0.2 mmol scale using Fmoc-based solid phase peptide synthesis. The peptides were solubilized in water to create 3 mM stock solutions. 3T3 fibroblasts, cultured in Dulbecco's Modified Eagle Medium (DMEM) with 2 mM glutamine, pen/strep antibiotic, and 10% fetal bovine serum (FBS), were seeded at a density of 50,000 cells per well (1 ml of 50,000 cells/ml) in 4-well chambered slides (4 slides were used). The slides were incubated at 37° C. with 5% CO2 in a humidified incubator for 4 hours to allow the cells to adhere to the slides. After 4 hours, each well was washed 3 times with phosphate buffered saline (PBS). 50 μl of a 3 mM stock of each peptide as well as a 3 mM stock of fluorescein in water were added to 15 ml tubes containing 3 ml of DMEM with 2 mM glutamine, antibiotic, and 10% FBS and to 15 ml tubes containing 3 ml of serum-free DMEM with 2 mM glutamine and antibiotic. Treatments were performed in duplicate for both serum-containing and serum-free DMEM. On each slide system, each well received media (either with or without serum) with fluorescein, WLRRIKA (SEQ ID NO: 3) monomer, WLRRIKA (SEQ ID NO: 3) dimer, or WLRRIKA (SEQ ID NO: 3) trimer. In all cases, the final peptide or fluorescein concentration was 50 μM per well. Once the treatments were added, the slides were incubated at 37° C. with 5% CO2 in a humidified incubator for 1 hour. Then, each well was washed with PBS 3 times. Following the PBS wash, 0.2 ml trypsin was added to each well to digest residual peptide bound to the outer cellular membranes, and the slides were incubated at 37° C. for 10 minutes. To inactivate the trypsin, 1 ml DMEM with serum was added to each well, and the slides were incubated for 4 hours to allow cells to reattach to the slides. After 4 hours, the cells were washed 3 times in PBS, and 1 ml of DMEM with serum was added to each well. Then, the slides were imaged using a 40× objective. […]
# [2] = tested on: primary rat astrocyte cells; assay: Transduction across cell membranes in primary rat astrocyte cells; format: cell-based
# Procedure: The in vitro model used to assess transduction across cell membranes was primary rat astrocyte cells. Cells were isolated as described (Innocenti et. al., J. Neurosci. 20:1800-1808, 2000), seeded at ˜3×10^4 cells/cm^2, and cultured in full serum (10% FBS in α-MEM) overnight. Some cells were serum starved by culturing in 0.5% FBS for 1-24 hours prior to treatment with transduction peptides.
# [3] = tested on: porcine ear skin; assay: Ex vivo skin transduction, porcine ear skin in modified Franz diffusion cell (Example 2); format: in vitro ADME; conditions: for skin penetration: 100 uM, conjugated or alone (FIG. 1, Panel C)
# Procedure: The ex vivo model selected for skin transduction studies was freshly excised porcine ears. […] The system was maintained at 37° C. and under constant stirring. […] The amount of peptides that permeated across the skin was determined in the receptor phase; 1.5 mL of the receptor phase was withdrawn, lyophilized and the residue was suspended in 150 μL of water. […] Standard curves of the peptides were used as reference.
# [4] = tested on: porcine ear skin; assay: Fluorescence microscopy of skin sections after peptide application
# Excerpt: The skin sections (8 μm) were mounted on glass slides. The slides were visualized without any additional staining or treatment through a 20× objective using a Zeiss microscope (Carl Zeiss, Thornwood, N.Y., USA) equipped with a filter for FITC and AxioVision software.
# [5] = tested on: porcine ear skin; assay: In vitro skin penetration and transdermal delivery, porcine ear skin in Franz diffusion cell, spectrofluorimetry (Example 3); conditions: for penetration in both SC and [E+D] compared with nonconjugated P20: all time points studied (0.5-8 h), p<0.05; for transdermal delivery: amount in the receptor phase: detected only at 8 hours post-application; for course of concentration in [E+D]: from 0.5 to 4 hours post-application, no further increase between 4 and 8 hours; for time of maximal rate of penetration in the whole skin (SC+[E+D]): post-application
# Procedure: Fluorescence microscopy was used to visualize the peptides in different skin layers.
# Formulations: Except in the experiments involving chemical penetration enhancers, FITC-labeled peptides were dissolved in phosphate-buffered saline (PBS, 10 mM, pH 7.2); the peptide concentration was 100 μM. In the experiment involving penetration enhancers, PBS could not be used as a solvent because of the lipophilic nature of monoolein and oleic acid. Propylene glycol was used as a solvent, since it solubilizes both lipids and peptides. […] The formulations were prepared by mixing monoolein or oleic acid with propylene glycol and adding the peptides to the system immediately thereafter.
# Porcine ear skin was used as model skin for in vitro skin penetration studies because of its similarity with human skin, especially regarding histological and biochemical properties and permeability to drugs (33). Freshly excised porcine ears were obtained from a local abattoir. The skin from the outer surface of the ear was carefully dissected; making sure that the subcutaneous fat was maximally removed (34). Maximum care was taken to maintain the integrity of the skin, which was assured by histology. The cleaned porcine ear skin was immediately mounted in a Franz diffusion cell (diffusion area of 1 cm^2; Laboratory Glass Apparatus, Inc, Berkeley, Calif., USA), with the stratum corneum facing the donor compartment (where the formulation was applied) and the dermis facing the receptor compartment, which was filled with PBS (100 mM, pH 7.2, 3 mL). The receptor phase was maintained at 37° C. and under constant stirring. To achieve higher reproducibility, the skin samples were equilibrated to the diffusion cell conditions for 30 minutes before application of any formulation.
# PBS solutions or propylene glycol formulations of the peptides (70 μL each) were applied to the skin surface (donor compartment). […] The concentrations of FITC-P20 (SEQ ID NO: 9), FITC-YARA-P20 (SEQ ID NO: 42), and FITC-TAT-P20 (SEQ ID NO: 43) in the skin and receptor phase were determined at 0.5, 1, 2, 4, and 8 hour post-application.
# At the end of the experiment, skin surfaces were thoroughly washed with distilled water to remove excess formulation and carefully wiped with a tissue paper. To separate the stratum corneum (SC) from the remaining epidermis (E) and dermis (D), the skin was subjected to tape stripping. The skin was stripped with 15 pieces of adhesive tape (3M, St. Paul, Minn., USA), and the tapes containing the SC were immersed in 3 mL of a water:methanol (1:1 v/v) solution, vortexed for 2 min, and bath sonicated for 30 minutes. The remaining [E+D] was cut in small pieces, vortexed for 2 minutes in 2 mL of a water:methanol (1:1 v/v) solution, and homogenized using a tissue grinder for 1 minute and bath sonication for 30 minutes. The resulting mixture was centrifuged for 1 minute. The peptide present in the receptor phase was concentrated (10×) as follows. Samples (2 mL) of the receptor phase were lyophilized for 24 hours, and the residue was dissolved in 200 μL of a hidroalcoholic (20% of ethanol) solution.
# All solutions were subjected to fluorimetry analysis using a Gemini SpectraMax™ platereader (Molecular Devices, Sunnyvale, Calif., USA) with excitation at 495 nm and emission at 518 nm. […] To evaluate the recovery of the peptides from the skin in the extraction procedure, tissues sections (1 cm^2) were spiked with 20 μL of 0.2 and 0.5 mM solutions of the peptides. The skin sections were homogenized using a tissue grinder, vortex-mixer, and bath sonicator, as described above. […] We accounted for such a recovery percentage in the quantification of peptides.
# [6] = tested on: Rat aorta; assay: Vasorelaxation of rat aorta rings pre-contracted with KCl (muscle bath)
# Procedure: Rat aorta was isolated and dissected free from connective and fat tissue. Transverse rings, 3.0 mm in width, were cut and tied to silk suture. The tissue was suspended in a muscle bath containing a bicarbonate buffer (120 mM NaCl, 4.7 mM KCl, 1.0 mM MgSO4, 1.0 mM NaH2PO4, 10 mM glucose, 1.5 mM CaCl2, and 25 mM […], pH 7.4) and equilibrated with 95% O2/5% CO2 at 37° C. The rings were fixed at one end to a stainless steel wire and attached to a force transducer in muscle perfusion system (Radnotti). The rings were then progressively stretched, and the isometric force generated in response to 110 mM KCl (with equimolar replacement of NaCl in bicarbonate buffer) was determined until the consistent maximal force was produced. Agonists and peptide was added directly to the baths. Tissue that was pre-contracted with 110 mM potassium chloride (KCl) followed by 1.0 mM WL-P20 ([…]p[…], pS is phosphoserine) (SEQ ID NO: 10), where pS is phosphoserine) relaxed compared to untreated control (13% relaxation at 10 minutes, 50% relaxation at 30 minutes, and maximum 88% relaxation at ˜60 minutes, FIG. 4). Percent relaxation was calculated relative to maximum force generated with KCl. […] Such a difference may result from different mechanisms of penetration and/or intracellular localization.
# [7] = PBS vehicle, 4 hours post-application
substance,measurement,setting,value
FITC-(b)AWLRRIKA ({FITC}-[βAla]WLRRIKA) [WLRRIKA monomer],fluorescence within the cells (ability to penetrate the cells),[1],not able to penetrate the cells
FITC-(b)AWLRRIKAWLRRIKA [WLRRIKA dimer],fluorescence within the cells (ability to penetrate the cells),[1],bright fluorescence within the cells
"WL-scrP20: control, the pseudo-monomer WLRRIKA-(WL-scrP20)",transduction,[2]; 1 μM,no transduction was observed
same,transduction,[2]; 25 μM,no transduction was observed
same,transduction,[2]; 50 μM,no transduction was observed
WLRRIKAWLRRIKAWLRRIKA [W3],fluorescence within the cells (ability to penetrate the cells),[1],bright fluorescence within the cells
same,transduction,[2]; 50 μM,efficient transduction
same,persistence of transduction,[2]; 50 μM for 1 h,at least 24 hours
same,carrying of non-covalently bound P20 across the skin,"[3]; 100 uM transduction domain, non-covalently bound (FIG. 1, Panel A)",did not carry P20
same,skin penetration,[3],significantly enhanced
same,skin penetration [E+D] of non-covalently bound P20,"[3]; 1 mM W3 used to carry P20 (FIG. 1, Panel B)",significant skin penetration
YARAAARQARA,localisation of fluorescence in skin layers,[4],strong fluorescent staining of SC and viable epidermis
same,amount penetrated into the skin (SC+[E+D]) relative to amount that permeated across the skin,[5],34 times
same,effect of monoolein or oleic acid on topical or transdermal delivery,[5],failed to further increase
same,influence of propylene glycol on skin penetration compared to PBS,[5],did not influence
same,penetration in the SC and [E+D] relative to the control peptide FITC-YKAc,[5],8-10 times
same,transdermal delivery: amount found in the receptor phase,[5],0.053 ± 0.009 nmol
YARAAARQARAWLRRASAPLPGLK (YARAAARQARAWLRRA[pS]APLPGLK; also: FITC label) [YARA-P20],localisation of fluorescence in skin layers,[4]; 4 hours post-application,strong fluorescence in the SC and viable epidermis
same,skin penetration,[3],significantly enhanced
same,penetration in both SC and [E+D] compared with nonconjugated P20,[5],significantly higher
same,transdermal delivery: amount in the receptor phase,[5],0.031 ± 0.011 nmol
same,course of concentration in [E+D],[5],progressively increased
same,time of maximal rate of penetration in the whole skin (SC+[E+D]),[5],1 h
same,time of maximum relaxation,[6],5 to 10 min
YGRKKRRQRRR [TAT],localisation of fluorescence in skin layers,[4]; 4 hours post-application,strong fluorescent staining of SC and viable epidermis
same,influence of propylene glycol on skin penetration compared to PBS,[5]; 4 hours post-application,did not influence
same,amount penetrated into the skin (SC+[E+D]) relative to amount that permeated across the skin,[5]; [7],30 times
same,transdermal delivery: amount found in the receptor phase,[5]; [7],0.058 ± 0.008 nmol
same,effect of monoolein or oleic acid on topical or transdermal delivery,"[5]; propylene glycol, monoolein 10% w/w or oleic acid 5% w/w, 4 h",failed to further increase
YGRKKRRQRRRWLRRASAPLPGLK [TAT-P20],localisation of fluorescence in skin layers,[4]; 4 hours post-application,strong fluorescence in the SC and viable epidermis
same,penetration in both SC and [E+D] compared with nonconjugated P20,[5],significantly higher
same,transdermal delivery: amount in the receptor phase,[5],0.027 ± 0.009 nmol
same,course of concentration in [E+D],[5],progressively increased
same,time of maximal rate of penetration in the whole skin (SC+[E+D]),[5],1 h
